Experimental data: paper PMC9682730

Assays:
FLAG-CHMP2B^Intron5 = FLAG-CHMP2B^Intron5 (UniProt Q9UQN3); experiment: co-IP; anti-FLAG M2 affinity gel IP from lysates of transfected HEK293 cells, overnight at 4 °C, washed with 50 mM Tris-HCl pH 7.4, 150 mM NaCl, FLAG elution; western blot with spastin antibody; four independent experiments, normalised to the abundance of CHMP2B^WT versus CHMP2B^Intron5
[1] = molecular target: spastin (human (endogenous in HEK293)) (UniProt Q9UBP0); experiment: co-IP; reverse IP with spastin antibody from transfected cells, western blot with FLAG antibody; three independent experiments

Sequence of FLAG-CHMP2B^Intron5 (Q9UQN3 whole entry): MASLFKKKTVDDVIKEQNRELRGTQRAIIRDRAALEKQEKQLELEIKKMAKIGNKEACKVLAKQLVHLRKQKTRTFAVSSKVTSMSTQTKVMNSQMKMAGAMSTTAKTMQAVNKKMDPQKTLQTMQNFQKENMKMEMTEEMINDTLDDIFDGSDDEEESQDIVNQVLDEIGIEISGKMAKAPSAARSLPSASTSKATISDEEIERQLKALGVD

Substance | fold of spastin pulled down against CHMP2B^WT (FLAG-CHMP2B^Intron5) | fold of CHMP2B pulled down by spastin antibody against CHMP2B^WT [1]
spastin (from UniProt Q9UBP0 87-616) (natural protein) | 11 times | –
FLAG-CHMP2B^Intron5 (from UniProt Q9UQN3 1-213) (natural protein) | – | 3.3 times
